Experimental data reported in patent US20110263454A1, “Methods of Identifying Functional Characteristics of Promoters, Transcription Modifying Proteins and Transcription Modulating Agents” (Salk Institute for Biological Studies, priority 2008, published 2011).

Legend:
hIRF7 promoter = test: NHR-promoter luciferase screen, hIRF7 promoter; assay type: cell-based, human; settings: for Normalized Luc. act., normalized to control / Luc. act., normalized to lacZ: IRF7 promoter reporter; for Normalized Luc. act., normalized to control: HR without or with its ligand, relative to control; for Luc. act., normalized to lacZ: hormone receptor (HR) without or with its ligand; for hIRF7 promoter reporter activity: transcription factor +/- ligand, control = 1.00
Protocol: (§1) The use, feasibility, and reproducibility of the functional NHR-promoter screen in a 48-well format have been tested validated. Briefly, there were co-expressed 50 ng of each NHR/NHR homodimer or NHR/RXR heterodimer with 100 ng promoter/luciferase construct and 50 ng of LacZ (as a control for transfection efficiency) in CV-1 cells using Fugene HD (Roche) as a transfection reagent (alternatively or additionally, a CMV-YFP construct can be used as a transfection control). Each of the nuclear hormone receptors that were used in these experiments was cloned into a pcDNA3.1 vector and comprised a C-terminally linked V5H6 tag. Twenty-four hours after transfection, appropriate ligands were added, where applicable, (see Table 5 for various ligands and concentrations and after 48 hrs, samples were assayed for luciferase and LacZ activity. To measure for luciferase activity 15 ul of sample was added to 30 ul of luciferase buffer (20 mM tricine, 1.07 mM MgCarbonate, 2.67 mM MgSulfate, 0.1 mM Naz-EDTA, 5 mM DTT, 5 mM ATP, 0.15 mg/ml CoA, 0.5 mM Luciferin), mixed briefly, and run in a Perkin Elmer Victor 5 luminometer. Thus, the functional NHR-promoter screen was used to observe the transcriptional activity of 29 promoters from various physiological pathways including inflammation, lipid and sugar metabolism, cholesterol transport, xenobiotic metabolism, and circadian rhythm.
(§2) The promoters that facilitate transcription of the indicated gene products that were tested using the protocols described herein are listed in the first row of the table. The nuclear hormone receptors and, where applicable, ligands that were assayed for their transcriptional effects on the promoters are listed in the first column of the table. The data represent the luciferase activity of each sample normalized to both the lacZ activity of that sample and to a control, e.g., no NHR or ligand, as customary in the art. As described previously, these normalizations allow the transcriptional activity of each reporter cell to be compared to other samples.
(§3) Tables 7-40 show the transcriptional effects of the hormone receptors, and, where applicable, ligands (orphan receptors are screened without ligand), on each individual promoter. […] The control data of each table are shown in their last rows.

mUCP1 promoter = test: NHR-promoter luciferase screen, mUCP1 promoter; assay type: cell-based, mouse; settings: for Luc. act., normalized to lacZ / Normalized Luc. act., normalized to control: mUCP1 promoter reporter, co-transfected HR, with or without its ligand; for Normalized Luc. act., normalized to control: relative to control; for luciferase activity normalized to lacZ activity and to a control, mUCP!: mUCP! promoter-luciferase, CV-1 cells, NHR +/- ligand, control = 1.00
Protocol: as §1, §2, §3

mGhrelin promoter = test: NHR-promoter luciferase screen, mGhrelin promoter; assay type: cell-based, mouse; settings: for Luc. act., normalized to lacZ / Normalized Luc. act., normalized to control: Table 8, mGhrelin; for Results of assays of transcription factor (+/- ligand) with mGhrelin: Table 6d, luciferase activity relative to control (control = 1.00)
Protocol: as §1, §2, §3

Bmal1 promoter = test: NHR-promoter luciferase screen, Bmal1 promoter; assay type: cell-based, mouse; settings: for Luc. act., normalized to lacZ / Normalized Luc. act., normalized to control: Bmal1 promoter, HR component without or with ligand; for regulation of the Bmal1 promoter: FIG. 2c, in words; for mBmal1 promoter reporter activity: transcription factor +/- ligand, control = 1.00
Protocol: as §1, §2, §3

mAgrp promoter = test: NHR-promoter luciferase screen, mAgrp promoter; assay type: cell-based, mouse; settings: for Results of assays of transcription factor (+/- ligand) with mAgrp: Table 6d, luciferase activity relative to control (control = 1.00); for Luc. act., normalized to lacZ / Normalized Luc. act., normalized to control: mAgrp promoter, HR component with or without ligand; for Normalized Luc. act., normalized to control: relative to control
Protocol: as §1, §2, §3

Molecule	Normalized Luc. act., normalized to control (hIRF7 promoter)	Luc. act., normalized to lacZ (hIRF7 promoter)	hIRF7 promoter reporter activity (hIRF7 promoter)	Luc. act., normalized to lacZ (mUCP1 promoter)	Normalized Luc. act., normalized to control (mUCP1 promoter)	luciferase activity normalized to lacZ activity and to a control, mUCP! (mUCP1 promoter)	Luc. act., normalized to lacZ (mGhrelin promoter)	Normalized Luc. act., normalized to control (mGhrelin promoter)	Results of assays of transcription factor (+/- ligand) with mGhrelin (mGhrelin promoter)	Luc. act., normalized to lacZ (Bmal1 promoter)	Normalized Luc. act., normalized to control (Bmal1 promoter)	regulation of the Bmal1 promoter (Bmal1 promoter)	mBmal1 promoter reporter activity (Bmal1 promoter)	Results of assays of transcription factor (+/- ligand) with mAgrp (mAgrp promoter)	Luc. act., normalized to lacZ (mAgrp promoter)	Normalized Luc. act., normalized to control (mAgrp promoter)
RVRa: Rev-Erb α (NR1D1), cDNA driver (protein, UniProt P20393 1-614, looked up) Nuclear receptor subfamily 1 …: MTTLDSNNNTGGVITYIGSSGSSPSRTSPESLYSDNSNGSFQSLTQGCPTYFPPSPTGSLTQDPARSFGSIPPSLSDDGSPSSSSSSSSSSSSFYNGSPPGSLQVAMEDSSRVSPSKSTSNITKLNGMVLLCKVCGDVASGFHYGVHACEGCKGFFRRSIQQNIQYKRCLKNENCSIVRINRNRCQQCRFKKCLSVGMSRDAVRFGRIPKREKQRMLAEMQSAMNLANNQLSSQCPLETSPTQHPTPGPMGPSPPPAPVPSPLVGFSQFPQQLTPPRSPSPEPTVEDVISQVARAHREIFTYAHDKLGSSPGNFNANHASGSPPATTPHRWENQGCPPAPNDNNTLAAQRHNEALNGLRQAPSSYPPTWPPGPAHHSCHQSNSNGHRLCPTHVYAAPEGKAPANSPRQGNSKNVLLACPMNMYPHGRSGRTVQEIWEDFSMSFTPAVREVVEFAKHIPGFRDLSQHDQVTLLKAGTFEVLMVRFASLFNVKDQTVMFLSRTTYSLQELGAMGMGDLLSAMFDFSEKLNSLALTEEELGLFTAVVLVSADRSGMENSASVEQLQETLLRALRALVLKNRPLETSRFTKLLLKLPDLRTLNNMHSEKLLSFRVDAQ	1.2	32.6	1.24	3.8	0.8	0.85	79.3	1.5	1.52	2.5	0.2	specific repression	0.16	1.21	47.9	1.2
RVRb: Rev-Erb β (NR1D2, alternative name RVR), cDNA driver (protein, UniProt Q14995 1-579, looked up) Nuclear receptor subfamily 1 …: MEVNAGGVIAYISSSSSASSPASCHSEGSENSFQSSSSSVPSSPNSSNSDTNGNPKNGDLANIEGILKNDRIDCSMKTSKSSAPGMTKSHSGVTKFSGMVLLCKVCGDVASGFHYGVHACEGCKGFFRRSIQQNIQYKKCLKNENCSIMRMNRNRCQQCRFKKCLSVGMSRDAVRFGRIPKREKQRMLIEMQSAMKTMMNSQFSGHLQNDTLVEHHEQTALPAQEQLRPKPQLEQENIKSSSPPSSDFAKEEVIGMVTRAHKDTFMYNQEQQENSAESMQPQRGERIPKNMEQYNLNHDHCGNGLSSHFPCSESQQHLNGQFKGRNIMHYPNGHAICIANGHCMNFSNAYTQRVCDRVPIDGFSQNENKNSYLCNTGGRMHLVCPMSKSPYVDPHKSGHEIWEEFSMSFTPAVKEVVEFAKRIPGFRDLSQHDQVNLLKAGTFEVLMVRFASLFDAKERTVTFLSGKKYSVDDLHSMGAGDLLNSMFEFSEKLNALQLSDEEMSLFTAVVLVSADRSGIENVNSVEALQETLIRALRTLIMKNHPNEASIFTKLLLKLPDLRSLNNMHSEELLAFKVHP	1.9	50.4	1.91	4.3	1.0	0.96	126.8	2.4	2.43	0.8	0.1	specific repression	0.05	1.05	41.7	1.1
RARa: Retinoic acid receptor α (NR1B1), nuclear hormone receptor cDNA driver (protein, UniProt P10276 1-462, looked up) Retinoic acid receptor alpha: MASNSSSCPTPGGGHLNGYPVPPYAFFFPPMLGGLSPPGALTTLQHQLPVSGYSTPSPATIETQSSSSEEIVPSPPSPPPLPRIYKPCFVCQDKSSGYHYGVSACEGCKGFFRRSIQKNMVYTCHRDKNCIINKVTRNRCQYCRLQKCFEVGMSKESVRNDRNKKKKEVPKPECSESYTLTPEVGELIEKVRKAHQETFPALCQLGKYTTNNSSEQRVSLDIDLWDKFSELSTKCIIKTVEFAKQLPGFTTLTIADQITLLKAACLDILILRICTRYTPEQDTMTFSDGLTLNRTQMHNAGFGPLTDLVFAFANQLLPLEMDDAETGLLSAICLICGDRQDLEQPDRVDMLQEPLLEALKVYVRKRRPSRPHMFPKMLMKITDLRSISAKGAERVITLKMEIPGSMPPLIQEMLENSEGLDTLSGQPGGGGRDGGGLAPPPGSCSPSLSPSSNRSSPATHSP	1.5	40.6	1.54	2.8	0.6	0.63	67.2	1.3	1.29	18.9	1.2		1.21	2.05	81.1	2.0
RARb: Retinoic acid receptor β (NR1B2), nuclear hormone receptor cDNA driver (protein, UniProt P10826 1-455, looked up) Retinoic acid receptor beta: MTTSGHACPVPAVNGHMTHYPATPYPLLFPPVIGGLSLPPLHGLHGHPPPSGCSTPSPATIETQSTSSEELVPSPPSPLPPPRVYKPCFVCQDKSSGYHYGVSACEGCKGFFRRSIQKNMIYTCHRDKNCVINKVTRNRCQYCRLQKCFEVGMSKESVRNDRNKKKKETSKQECTESYEMTAELDDLTEKIRKAHQETFPSLCQLGKYTTNSSADHRVRLDLGLWDKFSELATKCIIKIVEFAKRLPGFTGLTIADQITLLKAACLDILILRICTRYTPEQDTMTFSDGLTLNRTQMHNAGFGPLTDLVFTFANQLLPLEMDDTETGLLSAICLICGDRQDLEEPTKVDKLQEPLLEALKIYIRKRRPSKPHMFPKILMKITDLRSISAKGAERVITLKMEIPGSMPPLIQEMLENSEGHEPLTPSSSGNTAEHSPSISPSSVENSGVSQSPLVQ	1.8	47.2	1.79	4.4	1.0	1.00	84.4	1.6	1.61	15.6	1.0		1.00	2.27	90.2	2.3
RARg: Retinoic acid receptor γ (NR1B3), nuclear hormone receptor cDNA driver (protein, UniProt P13631 1-454, looked up) Retinoic acid receptor gamma: MATNKERLFAAGALGPGSGYPGAGFPFAFPGALRGSPPFEMLSPSFRGLGQPDLPKEMASLSVETQSTSSEEMVPSSPSPPPPPRVYKPCFVCNDKSSGYHYGVSSCEGCKGFFRRSIQKNMVYTCHRDKNCIINKVTRNRCQYCRLQKCFEVGMSKEAVRNDRNKKKKEVKEEGSPDSYELSPQLEELITKVSKAHQETFPSLCQLGKYTTNSSADHRVQLDLGLWDKFSELATKCIIKIVEFAKRLPGFTGLSIADQITLLKAACLDILMLRICTRYTPEQDTMTFSDGLTLNRTQMHNAGFGPLTDLVFAFAGQLLPLEMDDTETGLLSAICLICGDRMDLEEPEKVDKLQEPLLEALRLYARRRRPSQPYMFPRMLMKITDLRGISTKGAERAITLKMEIPGPMPPLIREMLENPEMFEDDSSQPGPHPNASSEDEVPGGQGKGGLKSPA	1.8	47.5	1.80	5.0	1.1	1.13	88.8	1.7	1.70	19.1	1.2		1.22	2.06	81.9	2.1
